According to patent publication US20240124575A1 (SIMCERE ZAIMING PHARMACEUTICAL, published 2024):

Legend:
[1] = target: T1, human CD33-His (extracellular domain Asp 18-His 259) (human, UniProt P20138 18-259); experiment: competitive ELISA vs coated SGN-33 3ug/mL; soluble 25ug/ml
T1 construct: range 18-259; bought protein; also called hCD33-his; human CD33 protein; not shown: His tag

[2] = target: T2, human CD33 on CHO-K1 cells (CHO-K1-human CD33) (human, UniProt P20138 18-364); experiment: FACS, CHO-K1-human CD33 cells
T2 construct: whole, on cells; stably transfected CHO-K1 clones; also called CHO-K1-hCD33-B8; CHO-K1-human CD33 B8
Protocol: The desired cells were expanded to a logarithmic growth phase in a T-75 cell culture flask. For adherent cells CHO-K1, the culture medium was removed by pipetting, and the cells were washed twice with a PBS buffer, digested with trypsin, and washed twice with a PBS buffer again after the digestion was stopped. For suspension cells U937, the medium supernatant was discarded by direct centrifugation, and the cell pellet was washed twice with PBS, and then incubated with a buffer containing human Fc Block (purchased from BD, Cat. No. 564220) for 15 min. After the cells obtained in the last step were subjected to cell counting, the cell pellet was resuspended to 2×10⁶ cells/mL with a blocking solution [PBS+2% (w/w) BSA] and added to a 96-well FACS reaction plate at 50 μL/well. The VHH-Fc antibody (a sample to be tested) was added at 50 μL/well, and the plate was incubated on ice for 2 h. […] After the plate was centrifuged and washed 5 times with a PBS buffer, the results were assayed and analyzed by FACS (FACS Canto™, purchased from BD Biosciences), so as to obtain the mean fluorescence intensity (MFI) of cells. Then, analysis was performed by software (GraphPad Prism8), data were fitted, and EC50 values were calculated.

[3] = target: T1, human CD33-His (extracellular domain …); experiment: competitive ELISA vs coated S006-NB146-16 3ug/mL; soluble 25ug/ml
[4] = target: T1, human CD33-His (extracellular domain …); experiment: competitive ELISA vs coated S006-NB146-39 2ug/mL; soluble 25ug/ml
Protocol: VHH antibodies and control antibodies with known epitopes were subjected to epitope classification with competitive ELISA. ELISA plates were coated with 2 μg/mL antibodies according to the method in Example 5.1; the human CD33-his protein was subjected to a gradient dilution from 30 μg/mL, and EC80 values (Tables 26-27) were calculated. ELISA plates were coated with 2 μg/mL antibodies; after 25 µg/mL of antibodies to be tested were added, a human CD33-his protein having an EC80 concentration corresponding to each of the antibodies to be tested was then added for incubation for 2 h. The plates were washed 5 times with PBS, then HRP-labeled anti-His antibodies (purchased from GenScript, Cat. No. A00612) were added for incubation for 1 h, and the plates were washed 5 times. A TMB substrate was added at 50 μL/well and incubated at room temperature for 10 min, then a stop solution (1.0 M HCl) was added at 50 μL/well. OD_{450 nm} values were read using an ELISA plate reader (Insight, purchased from PerkinElmer), and the competition rate between the antibodies was calculated according to the OD_{450 nm} values using a formula. The results are shown in FIGS. 12A-12B, the higher the value of the competition rate, the closer the epitopes to which two antibodies bind.

human CD33-his protein [5] = target: T3, human CD33-his protein (human, UniProt P20138 18-259); experiment: competition ELISA, coated human CD33-his, vs Biotin-C33B904 at EC80; antibody 31.25 nM
T3 construct: range 18-259; bought protein; also called hCD33-his; recombinant human CD33-his; not shown: His tag
Protocol: (§1) The plate was sealed with a plastic film and incubated at 4° C. overnight, washed twice with PBS the next day, and a blocking solution [PBS+2% (w/w) BSA] was added for blocking at room temperature for 2 h. The blocking solution was discarded, and VHH-Fc antibody or negative control antibody serially diluted from 100 nM was added at 50 μL/well. After incubation at 37° C. for 2 h, the plate was washed 3 times with PBS. A secondary antibody labeled with HRP (horseradish peroxidase) (purchased from Sigma, Cat. No. A0170) was added. After incubation for 1 h at 37° C., the plate was washed 5 times with PBS. A TMB substrate was added at 50 μL/well. After incubation at room temperature for 10 min, a stop solution (1.0 N HCl) was added at 50 μL/well. The OD450 nm values were read on an ELISA plate reader (Multimode Plate Reader, EnSight, purchased from Perkin Elmer). The assay results for the binding of the VHH-Fc to hCD33-his by ELISA are shown in FIGS. 7A and 7B and Tables 11 and 12. […] The IgG control was hIgG1, and the data in the table are OD450 nm values.
(§2) ELISA plates were coated with 2 μg/mL human CD33-his protein according to the method in Example 5.1; the Biotin-C331B904 antibody was subjected to a gradient dilution from 15 μg/mL, and EC80 values (0.18 μg/mL) were calculated. […] OD_{450 nm} values were read using an ELISA plate reader (Insight, purchased from PerkinElmer). […]

human CD33-his protein [6] = target: T3, human CD33-his protein; experiment: competition ELISA, coated human CD33-his, vs Biotin-C33B904 at EC80; antibody 125.00 nM
Protocol: as §1, §2

human CD33-his protein [7] = target: T3, human CD33-his protein; experiment: competition ELISA, coated human CD33-his, vs Biotin-C33B904 at EC80; antibody 0.98 nM
Protocol: as §1, §2

T1 sequence (P20138 18-259 limits assumed): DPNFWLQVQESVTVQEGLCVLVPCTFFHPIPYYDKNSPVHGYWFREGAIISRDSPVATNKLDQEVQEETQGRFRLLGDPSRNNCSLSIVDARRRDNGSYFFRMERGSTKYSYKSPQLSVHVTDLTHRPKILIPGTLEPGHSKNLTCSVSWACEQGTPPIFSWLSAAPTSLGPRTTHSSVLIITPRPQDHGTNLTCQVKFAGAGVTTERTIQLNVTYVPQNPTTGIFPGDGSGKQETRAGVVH
T3 sequence (P20138 18-259 limits assumed): as above
T2 sequence (P20138 18-364): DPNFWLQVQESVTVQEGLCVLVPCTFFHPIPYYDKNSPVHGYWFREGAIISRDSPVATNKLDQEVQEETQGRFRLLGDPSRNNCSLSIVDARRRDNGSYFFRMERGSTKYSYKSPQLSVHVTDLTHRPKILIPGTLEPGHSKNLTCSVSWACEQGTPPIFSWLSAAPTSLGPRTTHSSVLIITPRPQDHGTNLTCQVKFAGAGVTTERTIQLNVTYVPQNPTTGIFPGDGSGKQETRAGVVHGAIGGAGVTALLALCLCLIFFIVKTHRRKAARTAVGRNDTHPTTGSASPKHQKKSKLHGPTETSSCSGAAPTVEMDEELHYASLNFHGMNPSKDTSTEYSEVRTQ

B1: C33B904 hIgG1 (antibody, V domains shown)
VH: EVQLVESGGGLVQPGRSLRLSCAASGFTFDDYAMHWVRQAPGKGLEWVSGIGWSGGSIVYADSVKGRFTISRDNAKNSLYLQMNSLRAEDTALYYCAKDSPYGDFFDYWGQGTLVTVSS
VL: DIVMTQSPDSLAVSLGERATINCKSSQTVFYSSNNKNYLAWYQQKPGQPPKLLISWASTRKSGVPDRFSGSGSGTDFTLTVSSLQAEDVAVYYCQHYYSTPYTFGQGTKLEIKR
notes: intact human IgG1; variable regions from US20190382481A1; also called C33B3904; C331B904
Question: How did the inhibition rate [1] turn out when B1 was run?
Answer: 14%

Question: And the EC50 [2]?
Answer: 4.53 nM

Question: And the “Max MFI” value [2]?
Answer: 12400 MFI

Question: And the inhibition rate [3]?
Answer: 100%

Question: And the inhibition rate [4]?
Answer: 85%

B2: C33B904 (antibody, human IgG1, kappa, V domains shown)
VH: EVQLVESGGGLVQPGRSLRLSCAASGFTFDDYAMHWVRQAPGKGLEWVSGIGWSGGSIVYADSVKGRFTISRDNAKNSLYLQMNSLRAEDTALYYCAKDSPYGDFFDYWGQGTLVTVSS
VL: DIVMTQSPDSLAVSLGERATINCKSSQTVFYSSNNKNYLAWYQQKPGQPPKLLISWASTRKSGVPDRFSGSGSGTDFTLTVSSLQAEDVAVYYCQHYYSTPYTFGQGTKLEIKR
notes: control antibody, intact human IgG1 form; variable regions from US20190382481A1; also called C33B904 hIgG1; C331B904
Question: Which results are given for B2?
Answer: OD450 (Biotin-C33B904 signal) (human CD33-his protein [5]): 0.46; OD450 (Biotin-C33B904 signal) (human CD33-his protein [6]): 0.16; OD450 (Biotin-C33B904 signal) (human CD33-his protein [7]): 2.31
